Assay results from patent publication US9988428B2, “Pegylated bioactive peptides and uses thereof” (GRIFFON PHARMACEUTICALS INC., priority 2016, dated 2018).
Non-standard residues stand in square brackets, D forms with d. No end group written: not given here. hArg = N=C(N)NCCCC[C@H](N)C(=O)O; Orn = NCCC[C@H](N)C(=O)O

Legend:
[1] = target: T1, human GHRH receptor (Homo sapiens, UniProt Q02643); assay: Hit Hunter (DiscoveRx) cAMP agonist assay in cells expressing GHRH receptor; type: cell-based; conditions: for In vitro potency / biological activity (in words): effect of Cys-PEG substitution compared with native peptide
T1 sequence (Q02643 23-423): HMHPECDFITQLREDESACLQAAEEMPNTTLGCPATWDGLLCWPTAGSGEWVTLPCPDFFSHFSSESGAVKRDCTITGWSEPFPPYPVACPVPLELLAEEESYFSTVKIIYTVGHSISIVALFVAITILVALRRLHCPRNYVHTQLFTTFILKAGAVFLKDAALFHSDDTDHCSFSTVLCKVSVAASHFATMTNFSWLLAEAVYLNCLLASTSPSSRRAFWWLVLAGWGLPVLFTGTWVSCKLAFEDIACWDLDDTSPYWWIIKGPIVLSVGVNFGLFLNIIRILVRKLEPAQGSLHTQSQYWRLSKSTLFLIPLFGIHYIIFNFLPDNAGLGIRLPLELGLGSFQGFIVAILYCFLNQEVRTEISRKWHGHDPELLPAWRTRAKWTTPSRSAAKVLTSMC
Method: For agonist determination, cells were incubated with sample to induce response. Media was aspirated from cells and replaced with 15 μL 2:1 HBSS/10 mM Hepes: cAMP XS+Ab reagent. […] Vehicle concentration was 1%. After appropriate compound incubation, assay signal was generated through incubation with 20 μL cAMP XS+ED/CL lysis cocktail for one hour followed by incubation with 20 μL cAMP XS+EA reagent for three hours at room temperature. Microplates were read following signal generation with a PerkinElmer Envision™ instrument for chemiluminescent signal detection. Compound activity was analyzed using CBIS data analysis suite (ChemInnovation, CA).

[2] = system: Growth Hormone secretion; assay: GH release after subcutaneous injection of GHRH analogs in Sprague-Dawley rats (plasma GH ELISA); type: in vivo; conditions: female rats; for Growth hormone AUC (0-90 min): single subcutaneous dose 0.04 mg/kg, plasma GH, FIG. 1
Excerpt: Sprague-Dawley rats (female, weighing from 250 to 300 g) were obtained from Charles River Inc. Animals were used according to a protocol of the Animal Care Committee along with the principles of the Guide for the Care and Use of Experimental Animals of the Canadian Council on Animal Care. The animals were maintained on standard laboratory chow under a 12:12 light:dark cycle. They were kept in groups of 4 rats per cage. The animals were anesthetized with isoflurane 2.5%. A mid-section opening was made in the neck to expose the carotid artery. The carotid artery was canulated with polypropylene tubing (PE-50) to allow blood withdrawal. After surgical preparation, rats received a subcutaneous injection of GHRH analog (10-100 μg/kg) dissolved in 20 mM AcONa+5% mannitol at pH 5). Blood samples (400 μL/time point) were collected from 2-4 animals per group. […] Blood was collected into microtainer tubes containing K3EDTA, mixed and immediately centrifuged at 13,000 RPM in a desktop centrifuge for 2 minutes. The plasma was collected and placed into a screw cap Eppendorf™ tube and quickly frozen in liquid nitrogen. The samples were then kept at −80° C. until assayed. Determination of GH levels was performed as described below.
Rat and mouse plasma samples were vortexed carefully and centrifuged at 9,000 RPM for 2 min at 4° C. […] The remainder of the procedure was performed according to the manufacturer's instructions, and the data obtained were analyzed using GraphPad Prism™ software. […] Growth hormone levels were determined in timed-aliquots of blood and are depicted in FIG. 1. […]
The N-terminal part of the GHRH peptide is known to be buried in the extracellular loops and transmembrane domains of the GHRH receptor, and thus almost all of the amino acids in the N-terminal domain participate in high affinity binding of the GHRH peptide to the receptor. […] Briefly, peptides (0.04 mg/kg) were subcutaneously injected in female rats and growth hormone levels were determined in timed aliquots of blood drawn from the animals.

Row | In vitro potency / biological activity (in words) [1] | Molecule | also measured
1 | reduced potency | YaDAIFTASYROVLAQLSAROALQDC(Peg-2K)LSKN-NH2 (Y[dA]DAIFTASYR[Orn]VLAQLSAR[Orn]ALQDC(PEG 2 kDa)LSKN-NH2) [Analog 8, GHRH analog, Cys conjugated to about 2 kDa PEG at position 26] | –
2 | reduced potency | YaDAIFTASYROVLAQLSC(Peg-2K)ROALQDILSKN-NH2 (Y[dA]DAIFTASYR[Orn]VLAQLSC(PEG 2 kDa)R[Orn]ALQDILSKN-NH2) [Analog 4, GHRH analog, Cys conjugated to about 2 kDa PEG at position 19] | –
3 | reduced potency | YaDAIFTASYROVLC(Peg-2K)QLSAROALQDILSKN-NH2 (Y[dA]DAIFTASYR[Orn]VLC(PEG 2 kDa)QLSAR[Orn]ALQDILSKN-NH2) [Analog 5, GHRH analog, Cys conjugated to about 2 kDa PEG at position 15] | –
4 | reduced potency | YaDAIFTC(Peg-2K)SYROVLAQLSAROALQDILSKN-NH2 (Y[dA]DAIFTC(PEG 2 kDa)SYR[Orn]VLAQLSAR[Orn]ALQDILSKN-NH2) [Analog 7, GHRH analog, Cys conjugated to about 2 kDa PEG at position 8] | Growth hormone AUC (0-90 min) [2]: 15657 ng/ml/90 min

Second part, the molecule before the results:

Row | Molecule | In vitro potency / biological activity (in words) [1] | also measured
5 | CC[C@H](C)[C@H](NC(=O)[C@H](C)NC(=O)[C@H](CC(=O)O)NC(=O)[C@H](C)NC(=O)[C@@H](N)Cc1ccc(O)cc1)C(=O)N[C@@H](Cc1ccccc1)C(=O)N[C@H](C(=O)N[C@@H](CC(N)=O)C(=O)N[C@@H](CO)C(=O)N[C@@H](Cc1ccc(O)cc1)C(=O)N[C@@H](CCCNC(=N)N)C(=O)N[C@@H](CCCCN)C(=O)N[C@H](C(=O)N[C@@H](CC(C)C)C(=O)NCC(=O)N[C@@H](CCC(N)=O)C(=O)N[C@@H](CC(C)C)C(=O)N[C@@H](CO)C(=O)N[C@@H](C)C(=O)N[C@@H](CCCNC(=N)N)C(=O)N[C@@H](CCCCN)C(=O)N[C@@H](CC(C)C)C(=O)N[C@@H](CC(C)C)C(=O)N[C@@H](CCC(N)=O)C(=O)N[C@@H](CC(=O)O)C(=O)N[C@H](C(=O)N[C@@H](CCSC)C(=O)N[C@@H](CO)C(=O)N[C@@H](CCCNC(=N)N)C(N)=O)[C@@H](C)CC)C(C)C)[C@@H](C)O [GHRH1-29, reference compound] | – | Max. response (%) ([1]; Table 3, independent experiment): 112.97%
6 | YaDAIFTAC(Peg-2K)YROVLAQLSAROALQDILS-(Har)-NH2 (Y[dA]DAIFTAC(PEG 2 kDa)YR[Orn]VLAQLSAR[Orn]ALQDILS[hArg]-NH2) [Analog 10, GHRH analog, about 2 kDa PEG on Cys9, C-terminal Har-NH2] | – | Fold more potent than the native peptide ([1]; Table 3 experiment, versus GHRH1-29): ~14 fold
7 | YaDAIFTAC(Peg-2K)YROVLAQLSAROALQDILSKN-NH2 (Y[dA]DAIFTAC(PEG 2 kDa)YR[Orn]VLAQLSAR[Orn]ALQDILSKN-NH2) [Analog 6, GHRH analog, Cys conjugated to about 2 kDa PEG at position 9] | – | Growth hormone AUC (0-90 min) [2]: 29075 ng/ml/90 min
8 | YaDAIFTAC(Peg-5K)YROVLAQLSAROALQDILS(Har)-NH2 (Y[dA]DAIFTACYR[Orn]VLAQLSAR[Orn]ALQDILS[hArg]-NH2; not fully specified (residue 9); printed as YaDAIFTAC(Peg-5K)YROVLAQLSAROALQDILS(Har)-NH2) [Analog 15, GHRH analog, 5K PEG on Cys9, C-terminal Har-NH2] | without loss of in vitro biological activity | –
9 | YaDAIFTAC(Peg-40K)YROVLAQLSAROALQDILS(Har)-NH2 (Y[dA]DAIFTAC(PEG 40 kDa)YR[Orn]VLAQLSAR[Orn]ALQDILS[hArg]-NH2) [Analog 16, GHRH analog, about 40 kDa PEG on Cys9, C-terminal Har-NH2] | without loss of in vitro biological activity | –
10 | YaDAIFTASYROVLAC(Peg-2K)LSAROALQDILSKN-NH2 (Y[dA]DAIFTASYR[Orn]VLAC(PEG 2 kDa)LSAR[Orn]ALQDILSKN-NH2) [Analog 9, GHRH analog, Cys conjugated to about 2 kDa PEG at position 16] | reduced potency | –
11 | YaDAIFTASYROVLAQLSAROALQDILC(Peg-2K)KN-NH2 (Y[dA]DAIFTASYR[Orn]VLAQLSAR[Orn]ALQDILC(PEG 2 kDa)KN-NH2) [Analog 1, GHRH analog, Cys conjugated to about 2 kDa PEG at position 28] | – | Stimulation of GH secretion (in words) ([2]; subcutaneous 0.04 mg/kg, FIG. 1 / FIG. 2): potently stimulated GH secretion
